{
  "source": "patent US20020197690",
  "target": "T1, 35S-labeled in vitro translated GID",
  "T1 chain": "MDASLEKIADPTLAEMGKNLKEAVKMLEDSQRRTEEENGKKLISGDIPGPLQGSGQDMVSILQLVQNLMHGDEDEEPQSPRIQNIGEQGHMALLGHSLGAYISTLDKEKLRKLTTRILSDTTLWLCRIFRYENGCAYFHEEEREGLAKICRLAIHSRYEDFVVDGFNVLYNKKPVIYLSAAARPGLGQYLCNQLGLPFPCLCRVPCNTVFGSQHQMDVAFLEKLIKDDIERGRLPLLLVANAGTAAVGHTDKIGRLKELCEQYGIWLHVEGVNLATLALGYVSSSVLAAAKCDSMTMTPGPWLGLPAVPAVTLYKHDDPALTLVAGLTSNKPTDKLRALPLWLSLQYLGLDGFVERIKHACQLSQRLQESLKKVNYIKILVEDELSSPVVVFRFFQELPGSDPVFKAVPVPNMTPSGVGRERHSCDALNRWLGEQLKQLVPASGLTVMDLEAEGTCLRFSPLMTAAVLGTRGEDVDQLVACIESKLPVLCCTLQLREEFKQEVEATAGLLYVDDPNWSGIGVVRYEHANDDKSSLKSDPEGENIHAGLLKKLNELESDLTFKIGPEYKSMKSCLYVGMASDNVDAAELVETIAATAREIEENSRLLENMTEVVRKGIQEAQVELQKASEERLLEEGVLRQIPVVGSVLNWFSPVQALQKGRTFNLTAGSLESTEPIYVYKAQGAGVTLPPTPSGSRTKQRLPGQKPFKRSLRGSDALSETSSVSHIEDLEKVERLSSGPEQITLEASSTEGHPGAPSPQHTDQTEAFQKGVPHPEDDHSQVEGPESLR",
  "data": [
    {"protein": "recombinant caspase-3 (Pharmingen) (protein) SGISLDNSYKMDYPEMGLCIIINNKNFHKSTGMTSRSGTDVDAANLRETFRNLKYEVRNKNDLTREEIVELMRDVSKEDHSKRSSFVCVLLSHGEEGIIFGTNGPVDLKKITNFFRGDRCRSLTGKPKLFIIQACRGTELDCGIETDSGVDDDMACHKIPVEADFLYAYSTAPGYYSWRNSKDGSWFIQSLCAMLKQYADKLEFMHILTRVNRKVATEFESFSFDATFHAKKQIPCIVSMLTKELYFYH", "values": [
      {"measurement": "in vitro caspase-3 assay: cleavage of 35S-labeled in vitro translated GID (SDS-PAGE, autoradiography)", "value": "Increasing amounts of caspase-3 incubated with GID resulted in greater amounts of a cleavage product of approximately 58 kDa, which was not observed in the presence of incubation with buffer alone"}
    ]}
  ]
}
